Legend:
[1] = test system: UVI31+ (wild type) (Chlamydomonas reinhardtii), PDB:5ZB6_1; assay: EMSA; settings: ITC: 10 mM Tris-HCl pH 7.5, 50 mM NaCl, 5% glycerol, 5 mM MgCl2, 0.1 mM EDTA, 25 C, EMSA: 10 mM Na-phosphate pH 7.5, 10 mM NaCl, 1 mM MgCl2, 37 C, 5 min, 1 uM …
[2] = test system: UVI31+ (wild type) (Chlamydomonas reinhardtii), PDB:5ZB6_1; assay: ITC; settings: ITC: 10 mM Tris-HCl pH 7.5, 50 mM NaCl, 5% glycerol, 5 mM MgCl2, 0.1 mM EDTA, EMSA: 10 mM Na-phosphate pH 7.5, 10 mM NaCl, 1 mM MgCl2, 37 C, 5 min, 1 uM …; for Ka (M-1 (unit not given)): 5 mM MgCl2, 25 C

In the case of 50-bp dsDNA (EMSA), the Kd [1] is reported as 1100 nM.
Work on “CGCGAATTCGCG (double strand) [12-mer self-complementary ds-DNA]” yielded a Ka (M-1 (unit not given)) ([2]; K1, sequential binding model) of 3.05e+06, a Ka (M-1 (unit not given)) ([2]; K2, sequential binding model) of 11400 and a Kd ([2]; apparent Kd, two sets of sites, 5 mM MgCl2, 50 mM NaCl, pH 7.5, 25 C) of 5360 nM.
Substance ssDNA (EMSA, 50-mer) has a Kd ([1]; 1 mM MgCl2, partial loss of ssDNA by cleavage) of 1400 nM.

Source: paper PMC6137056
